According to US20200165325A1:

Experiments:
[1] = biological target: Env (gp120) of HIV-1 strain SC422661.8 (HIV-1)
[2] = biological target: Env (gp120) of HIV-1 strain AC10.0.29 (HIV-1)
[3] = biological target: Env (gp120) of HIV-1 strain CAP45.2.00.G3 (HIV-1)
[4] = biological target: Env (gp120) of HIV-1 strain TRO.11 (HIV-1)
[5] = biological target: Env (gp120) of HIV-1 strain CAP210.2.00.E8 (HIV-1)
[6] = biological target: Env (gp120) of HIV-1 strain Q769.d22 (HIV-1)
[7] = biological target: Env (gp120) of HIV-1 strain C1080.c03 (HIV-1)
[8] = biological target: Env (gp120) of HIV-1 strain 6480.v4.c25 (HIV-1)
[9] = biological target: Env (gp120) of HIV-1 strain ZM247v1(Rev-) (HIV-1)
[10] = biological target: Env (gp120) of HIV-1 strain Q461.e2 (HIV-1)
[11] = biological target: Env (gp120) of HIV-1 strain R2184.c04 (HIV-1)
[12] = biological target: Env (gp120) of HIV-1 strain CNE53 (HIV-1)
[13] = biological target: Env (gp120) of HIV-1 strain C2101.c01 (HIV-1)
[14] = biological target: Env (gp120) of HIV-1 strain 1056_10_TA11_1826 (HIV-1)
[15] = biological target: Env (gp120) of HIV-1 strain 231965.c01 (HIV-1)
[16] = biological target: Env (gp120) of HIV-1 strain 62357_14_D3_4589 (HIV-1)
[17] = biological target: Env (gp120) of HIV-1 strain PVO.4 (HIV-1)
[18] = biological target: Env (gp120) of HIV-1 strain T250-4 (HIV-1)
[19] = biological target: Env (gp120) of HIV-1 strain ZM53M.PB12 (HIV-1)
[20] = biological target: Env (gp120) of HIV-1 strain Ce1176_A3 (HIV-1)
[21] = biological target: Env (gp120) of HIV-1 strain T255-34 (HIV-1)
[22] = biological target: Env (gp120) of HIV-1 strain Du172.17 (HIV-1)
[23] = biological target: Env (gp120) of HIV-1 strain HIV-16845-2.22 (HIV-1)
[24] = biological target: Env (gp120) of HIV-1 strain Ce0393_C3 (HIV-1)
[25] = biological target: Env (gp120) of HIV-1 strain 3016.v5.c45 (HIV-1)
[26] = biological target: Env (gp120) of HIV-1 strain T278-50 (HIV-1)
[27] = biological target: Env (gp120) of HIV-1 strain Ce2060_G9 (HIV-1)
[28] = biological target: Env (gp120) of HIV-1 strain CNE17 (HIV-1)
[29] = biological target: Env (gp120) of HIV-1 strain QH0692.42 (HIV-1)
[30] = biological target: Env (gp120) of HIV-1 strain T251-18 (HIV-1)
[31] = biological target: Env (gp120) of HIV-1 strain CNE58 (HIV-1)
[32] = biological target: Env (gp120) of HIV-1 strain 0330.v4.c3 (HIV-1)
[33] = biological target: Env (gp120) of HIV-1 strain Q842.d12 (HIV-1)
[34] = biological target: Env (gp120) of HIV-1 strain Du156.12 (HIV-1)
[35] = biological target: Env (gp120) of HIV-1 strain WITO4160.33 (HIV-1)
[36] = biological target: Env (gp120) of HIV-1 strain C3347.c11 (HIV-1)
[37] = biological target: Env (gp120) of HIV-1 strain Q23.17 (HIV-1)
[38] = biological target: Env (gp120) of HIV-1 strain P0402_c2_11 (HIV-1)
[39] = biological target: Env (gp120) of HIV-1 strain RHPA4259.7 (HIV-1)
[40] = biological target: Env (gp120) of HIV-1 strain 6540.v4.c1 (HIV-1)
[41] = biological target: Env (gp120) of HIV-1 strain 211-9 (HIV-1)
[42] = biological target: Env (gp120) of HIV-1 strain Q259.d2.17 (HIV-1)
[43] = biological target: Env (gp120) of HIV-1 strain Ce0682_E4 (HIV-1)
[44] = biological target: Env (gp120) of HIV-1 strain 0815.v3.c3 (HIV-1)
[45] = biological target: Env (gp120) of HIV-1 strain CNE21 (HIV-1)
[46] = biological target: Env (gp120) of HIV-1 strain ZM249M.PL1 (HIV-1)
[47] = biological target: Env (gp120) of HIV-1 strain TRJO4551.58 (HIV-1)
[48] = biological target: Env (gp120) of HIV-1 strain ZM197M.PB7 (HIV-1)
[49] = biological target: Env (gp120) of HIV-1 strain REJO4541.67 (HIV-1)
[50] = biological target: Env (gp120) of HIV-1 strain Ce703010054_2A2 (HIV-1)

## NIH45-46^G54W IgG (antibody)
[1]
  neutralization IC50: 0.03 µg/mL
[2]
  neutralization IC50: 0.2 µg/mL
[3]
  neutralization IC50: 6.6 µg/mL
[4]
  neutralization IC50: 0.09 µg/mL
[5]
  neutralization IC50: 41 µg/mL
[6]
  neutralization IC50: < 0.001 µg/mL
[7]
  neutralization IC50: 0.2 µg/mL
[8]
  neutralization IC50: 0.004 µg/mL
[9]
  neutralization IC50: 0.32 µg/mL
[10]
  neutralization IC50: 0.009 µg/mL
[11]
  neutralization IC50: 0.005 µg/mL
[12]
  neutralization IC50: < 0.001 µg/mL
[13]
  neutralization IC50: 0.04 µg/mL
[14]
  neutralization IC50: 0.024 µg/mL
[15]
  neutralization IC50: < 0.001 µg/mL
[16]
  neutralization IC50: 0.02 µg/mL
[17]
  neutralization IC50: 0.05 µg/mL
[18]
  neutralization IC50: 1.33 µg/mL
[19]
  neutralization IC50: 0.04 µg/mL
[20]
  neutralization IC50: 0.16 µg/mL
[21]
  neutralization IC50: < 0.001 µg/mL
[22]
  neutralization IC50: 3.65 µg/mL
[23]
  neutralization IC50: 0.45 µg/mL
[24]
  neutralization IC50: 0.013 µg/mL
[25]
  neutralization IC50: 1.47 µg/mL
[26]
  neutralization IC50: > 50 µg/mL
[27]
  neutralization IC50: 0.005 µg/mL
[28]
  neutralization IC50: 0.036 µg/mL
[29]
  neutralization IC50: 0.37 µg/mL
[30]
  neutralization IC50: 0.26 µg/mL
[31]
  neutralization IC50: 0.02 µg/mL
[32]
  neutralization IC50: 0.03 µg/mL
[33]
  neutralization IC50: 0.005 µg/mL
[34]
  neutralization IC50: < 0.001 µg/mL
[35]
  neutralization IC50: 0.01 µg/mL
[36]
  neutralization IC50: < 0.001 µg/mL
[37]
  neutralization IC50: 0.01 µg/mL
[38]
  neutralization IC50: 0.003 µg/mL
[39]
  neutralization IC50: < 0.001 µg/mL
[40]
  neutralization IC50: > 50 µg/mL
[41]
  neutralization IC50: 16.4 µg/mL
[42]
  neutralization IC50: < 0.001 µg/mL
[43]
  neutralization IC50: 0.01 µg/mL
[44]
  neutralization IC50: < 0.001 µg/mL
[45]
  neutralization IC50: 0.03 µg/mL
[46]
  neutralization IC50: 0.002 µg/mL
[47]
  neutralization IC50: 0.01 µg/mL
[48]
  neutralization IC50: 0.04 µg/mL
[49]
  neutralization IC50: 0.002 µg/mL
[50]
  neutralization IC50: 0.027 µg/mL

## NIH45-46^G54Y IgG (antibody)
[1]
  neutralization IC50: 0.06 µg/mL
[2]
  neutralization IC50: 0.4 µg/mL
[3]
  neutralization IC50: 45 µg/mL
[4]
  neutralization IC50: 0.1 µg/mL
[5]
  neutralization IC50: > 50 µg/mL
[6]
  neutralization IC50: 0.007 µg/mL
[7]
  neutralization IC50: 0.29 µg/mL
[8]
  neutralization IC50: 0.018 µg/mL
[9]
  neutralization IC50: 0.42 µg/mL
[10]
  neutralization IC50: 0.023 µg/mL
[11]
  neutralization IC50: 0.015 µg/mL
[12]
  neutralization IC50: 0.006 µg/mL
[13]
  neutralization IC50: 0.09 µg/mL
[14]
  neutralization IC50: 0.044 µg/mL
[15]
  neutralization IC50: 0.025 µg/mL
[16]
  neutralization IC50: 0.03 µg/mL
[17]
  neutralization IC50: 0.06 µg/mL
[18]
  neutralization IC50: > 50 µg/mL
[19]
  neutralization IC50: 0.06 µg/mL
[20]
  neutralization IC50: 0.21 µg/mL
[21]
  neutralization IC50: 0.04 µg/mL
[22]
  neutralization IC50: > 50 µg/mL
[23]
  neutralization IC50: 0.59 µg/mL
[24]
  neutralization IC50: 0.036 µg/mL
[25]
  neutralization IC50: 17.9 µg/mL
[26]
  neutralization IC50: > 50 µg/mL
[27]
  neutralization IC50: 0.021 µg/mL
[28]
  neutralization IC50: 0.073 µg/mL
[29]
  neutralization IC50: 0.52 µg/mL
[30]
  neutralization IC50: 0.35 µg/mL
[31]
  neutralization IC50: 0.04 µg/mL
[32]
  neutralization IC50: 0.03 µg/mL
[33]
  neutralization IC50: 0.015 µg/mL
[34]
  neutralization IC50: 0.007 µg/mL
[35]
  neutralization IC50: 0.03 µg/mL
[36]
  neutralization IC50: 0.011 µg/mL
[37]
  neutralization IC50: 0.02 µg/mL
[38]
  neutralization IC50: 0.012 µg/mL
[39]
  neutralization IC50: 0.007 µg/mL
[40]
  neutralization IC50: > 50 µg/mL
[41]
  neutralization IC50: > 50 µg/mL
[42]
  neutralization IC50: 0.009 µg/mL
[43]
  neutralization IC50: 0.017 µg/mL
[44]
  neutralization IC50: < 0.001 µg/mL
[45]
  neutralization IC50: 0.07 µg/mL
[46]
  neutralization IC50: 0.003 µg/mL
[47]
  neutralization IC50: 0.03 µg/mL
[48]
  neutralization IC50: 0.07 µg/mL
[49]
  neutralization IC50: 0.007 µg/mL
[50]
  neutralization IC50: 0.022 µg/mL
